# Where no end group is shown, it is not given here.
# B1: Phage-1705 (clonal phage displaying a Peptide-92 library peptide, SEQ ID NO: 2001) (peptide)
# peptide: SCGGGFHYSWPLCF
# modifications: cysteine pairing not given here; also: displayed as fusion to phage pIII, linker and order of fusion not given here
# notes: not shown: pIII filament protein of the bacteriophage to which the peptide is fused
# B2: Phage-1704 (clonal phage displaying a Peptide-92 library peptide, SEQ ID NO: 2000) (peptide)
# peptide: SCAAGAGYGWPQCL
# modifications: cysteine pairing not given here; also: displayed as fusion to phage pIII, linker and order of fusion not given here
# notes: as for B1
# B3: Phage-1706 (clonal phage displaying a Peptide-92 library peptide, SEQ ID NO: 2002) (peptide)
# peptide: GCAAGFHYTLSTCL
# modifications: cysteine pairing not given here; also: displayed as fusion to phage pIII, linker and order of fusion not given here
# notes: as for B1
# What was measured:
# Ab-15 [1] = test: BLI (Octet): biotinylated peptide on sensor, Ab-15 titrated, 1:1 model
# Ab-15 [2] = test: binding ELISA: biotinylated peptide on neutravidin plate, Ab-15 titrated
# Ab-15 [3] = test: BLI (Octet): sensor loaded with 200 nM biotinylated peptide, 100 nM Ab-15
# Ab-15 [4] = test: competition ELISA: peptide titrated against 1 nM Ab-15; competitor plate-bound CD28
# [5] = target: T1, PSMA Fab (SEQ ID NOs: 19, 20); test: competition ELISA, peptide titrated against 0.3 nM PSMA Fab on captured biotinylated PSMA
# T1 construct: also called 006 PSMA Fab; anti-PSMA Fab
# PSMA Fab [6] = target: T2, PSMA Fab (Fab biotinylated for capture on neutravidin plates (site not given)); test: phage ELISA: biotinylated PSMA Fab on neutravidin plate, clonal phage supernatant, anti-M13 HRP; blocking buffer alone
# T2 construct: also called Anti-PSMA Fab; 006 PSMA Fab
# PSMA Fab [7] = target: T2, PSMA Fab; test: phage ELISA: biotinylated PSMA Fab on neutravidin plate, clonal phage supernatant, anti-M13 HRP; wells pre-incubated with PSMA antigen as competitor
# [8] = target: T3, Anti-CD28 Fab (SEQ ID NOs: 696, 697); test: phage binding ELISA; anti-CD28 Fab on plate pre-incubated with CD28 antigen as competitor, anti-M13 HRP detection
# T3 construct: Biotinylated and captured on neutravidin coated plates in the panning ELISA
# [9] = target: T3, Anti-CD28 Fab (SEQ ID NOs: 696, 697); test: phage binding ELISA; biotinylated anti-CD28 Fab on neutravidin plate, clonal phage supernatant, anti-M13 HRP detection;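 note: wells pretreated with blocking buffer, either plus or minus CD28 antigen, then given crude phage supernatant briefly without washing in between, then washed before anti-M13 HRP readout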
Binder,IC50 [5] [µM],Anti-CD28 Fab signal in the presence of CD28 (phage binding ELISA) [8],Anti-CD28 Fab signal (phage binding ELISA) [9],other results
"IDWCPRYLWDECYN (cysteine pairing not given here; also: biotinylated, site not given here, CD28 peptide mask) [Peptide-71]",,,,Kd (Ab-15 [1]): 16 nM; t1/2 (Ab-15 [1]): 9.1 min; EC50 (Ab-15 [2]): 2.1 nM; Octet signal (200 nM peptide) (Ab-15 [3]): 1.52; IC50 (Ab-15 [4]): 140 nM
"HCKFHDYHSWYMCY (cysteine pairing not given here; also: biotinylated (site not given here), PSMA peptide mask (P2)) [Peptide-175]",17.8,,,
"PLCGTEEVWWECRL (cysteine pairing not given here; also: biotinylated (site not given here), PSMA peptide mask (P2)) [Peptide-166]",19.2,,,
"YECHQGLFHRWCVN (cysteine pairing not given here; also: biotinylated (site not given here), PSMA peptide mask (P2)) [Peptide-158]",17.3,,,
"APRMCSPPWMCYEL (peptide, not shown: large carriers, Clonal phage of the Peptide-180 library) [Phage-4013]",,,,phage binding ELISA signal (PSMA Fab [6]): 0.416; phage binding ELISA signal (PSMA Fab [7]): 0.0661
B1,,0.15,0.55,
B2,,0.13,0.55,
B3,,0.05,0.42,
"PDCVYHSFWGYSCR (cysteine pairing not given here; also: biotinylated (site not given here), PSMA peptide mask (P2)) [Peptide-178]",20.8,,,

# Reference: patent US20260242478A1 (published 2026)
